The source of these data is patent CN114075552A (MEDX TRANSLATIONAL MEDICINE CO LTD, dated 2022).

The target in experiment [1] is T1, 真核表达的人FGL1重组蛋白 (human FGL1 Leu23-Ile312 with C-terminal 6xHis, expressed in 293F cells) (human, UniProt Q08830 23-312).
T1 construct: also called 真核表达的FGL1蛋白; 真核表达的人FGL1蛋白
T1 sequence: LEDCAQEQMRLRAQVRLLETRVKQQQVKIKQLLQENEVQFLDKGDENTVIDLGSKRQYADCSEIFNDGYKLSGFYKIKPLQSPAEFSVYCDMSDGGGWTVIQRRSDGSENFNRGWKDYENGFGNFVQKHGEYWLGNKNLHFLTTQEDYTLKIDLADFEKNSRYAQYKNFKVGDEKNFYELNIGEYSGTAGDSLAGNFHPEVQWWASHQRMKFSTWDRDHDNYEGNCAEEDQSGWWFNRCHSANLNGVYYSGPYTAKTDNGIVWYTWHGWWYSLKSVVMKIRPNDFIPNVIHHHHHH
The experiment can be described thus: indirect ELISA screen, hybridoma supernatant on coated human FGL1 recombinant protein (0.5 µg/mL). (In general: ELISA stands for enzyme-linked immunosorbent assay.)

In experiment [2] the target is T2, 原核表达的TF-FGL1融合蛋白 (human FGL1 Leu23-Ile312 fused to trigger factor, pCold TF, expressed in E. coli BL21(DE3)) (human).
T2 construct: also called 原核表达的FGL1蛋白; TF-FGL1蛋白
T2 chain: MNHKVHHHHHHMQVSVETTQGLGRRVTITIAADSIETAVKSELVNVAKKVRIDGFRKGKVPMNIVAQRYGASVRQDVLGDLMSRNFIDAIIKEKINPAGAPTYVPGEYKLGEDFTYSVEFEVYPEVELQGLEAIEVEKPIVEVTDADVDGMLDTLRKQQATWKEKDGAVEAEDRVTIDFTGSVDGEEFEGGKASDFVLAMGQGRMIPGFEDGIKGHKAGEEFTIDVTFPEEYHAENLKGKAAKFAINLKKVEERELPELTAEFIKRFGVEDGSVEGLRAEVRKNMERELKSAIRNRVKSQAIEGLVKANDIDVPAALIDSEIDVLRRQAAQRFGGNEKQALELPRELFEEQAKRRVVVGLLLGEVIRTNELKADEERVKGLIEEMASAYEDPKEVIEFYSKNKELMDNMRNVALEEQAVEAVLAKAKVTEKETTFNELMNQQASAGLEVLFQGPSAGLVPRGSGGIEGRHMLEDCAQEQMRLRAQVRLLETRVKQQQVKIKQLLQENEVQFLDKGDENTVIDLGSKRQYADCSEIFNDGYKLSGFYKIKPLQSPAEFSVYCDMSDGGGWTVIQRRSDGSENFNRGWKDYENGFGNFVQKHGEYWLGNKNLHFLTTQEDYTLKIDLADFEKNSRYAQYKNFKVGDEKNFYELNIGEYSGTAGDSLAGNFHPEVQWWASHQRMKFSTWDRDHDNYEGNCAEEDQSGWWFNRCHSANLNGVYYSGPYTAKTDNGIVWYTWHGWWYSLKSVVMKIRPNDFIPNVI
The experiment can be described thus: indirect ELISA, antigen coated at 0.5 µg/mL, purified antibody 0.5 µg/mL.

Experiment [3] deals with T1, 真核表达的人FGL1重组蛋白 (human FGL1 Leu23-Ile312 …). The experiment is described as above.

B1: 克隆号为MJ9-1的杂交瘤细胞(CGMCC No.23015)分泌的抗FGL1单克隆抗体 (antibody, mouse IgG1, kappa, V domains shown)
VH: EVQLVESGGGLVKPGGSLKLSCAASGFTFSDGYMYWVRQTPEKRLEWVATISDGGSGTYYPDSVKGRFTISRDNAKNNLYLQMSSLKSEDTAMYYCARAATVTRWFAYWGQGTLVTVSA
VL: DIQMNQSPSSLSASLGDTITITCHASYNINVWLTWYQQKPGNIPKLLIYKASKLHTGVPSRFSGSGSGTGFTLTISSLQPEDIATYYCQQGQSYPLTFGGGTKLEIKR
notes: also called MJ9-1分泌的单克隆抗体; 第一单克隆抗体
As to B1, the binding result in experiment [1] and in experiment [2] was “binds” in each case.

B2: 克隆号为MJ9-4的杂交瘤细胞(CGMCC No.23016)分泌的抗FGL1单克隆抗体 (antibody, mouse IgG1, kappa, V domains shown)
VH: EVKLQQSGAELAKPGASVKMSCKASGYIFTGGWMHWVKQRPGQGLEWIGYINPSTDGTDYNQKFEDKATLTADKSSSTAYMQLSSLTSEDSAVYYCAREGYYGSSPYFDYWGQGTTLTVSS
VL: DIVITQTPATLSVTPGDSVSLSCRASQSVSNNLHWYQQKSHESPRLLIKYVSQSISGIPSRFSGSGSGTDFTLSINSVETEDFGMYFCQQSNSWPLYTFGGGTKLEIKR
notes: also called MJ9-4分泌的单克隆抗体; 第二单克隆抗体
Regarding B2, the binding result in experiment [2] and in experiment [3] was “binds” throughout.
